Assay results: patent publication US20230203098A1 (published 2023)
Each block holds one binder with its values, some of them ahead of it. *1 amine or outer side, *2 acyl side, *3 side chain or, on linkers, in order; H or OH if unused. Bridges are numbered along the chain shown (N, C = ends). Primed or numbered codes have the meaning given here. Where no end group is shown, it is not given here. [ ]: non-standard residue; d: D form. Tyr(Me) = COc1ccc(C[C@H](N[*:1])C(=O)[*:2])cc1; NMePhe(3-Cl) = CN[C@@H](Cc1cccc(Cl)c1)C(=O)O; NMeW = CN[C@@H](Cc1c[nH]c2ccccc12)C(=O)O; NMeY = CN[C@@H](Cc1ccc(O)cc1)C(=O)O; PEG11′ = not defined here; Aib = CC(C)(N)C(=O)O

Tests used:
[1] = target: T1, human transferrin receptor (hTfR) (human, UniProt P02786 89-760, limits assumed); assay: SPR according to Example 2
T1 construct: hTfR solution immobilised on NTA chip (Ni capture plus EDC/NHS); also called human TfR
T1 sequence (P02786 89-760 limits assumed): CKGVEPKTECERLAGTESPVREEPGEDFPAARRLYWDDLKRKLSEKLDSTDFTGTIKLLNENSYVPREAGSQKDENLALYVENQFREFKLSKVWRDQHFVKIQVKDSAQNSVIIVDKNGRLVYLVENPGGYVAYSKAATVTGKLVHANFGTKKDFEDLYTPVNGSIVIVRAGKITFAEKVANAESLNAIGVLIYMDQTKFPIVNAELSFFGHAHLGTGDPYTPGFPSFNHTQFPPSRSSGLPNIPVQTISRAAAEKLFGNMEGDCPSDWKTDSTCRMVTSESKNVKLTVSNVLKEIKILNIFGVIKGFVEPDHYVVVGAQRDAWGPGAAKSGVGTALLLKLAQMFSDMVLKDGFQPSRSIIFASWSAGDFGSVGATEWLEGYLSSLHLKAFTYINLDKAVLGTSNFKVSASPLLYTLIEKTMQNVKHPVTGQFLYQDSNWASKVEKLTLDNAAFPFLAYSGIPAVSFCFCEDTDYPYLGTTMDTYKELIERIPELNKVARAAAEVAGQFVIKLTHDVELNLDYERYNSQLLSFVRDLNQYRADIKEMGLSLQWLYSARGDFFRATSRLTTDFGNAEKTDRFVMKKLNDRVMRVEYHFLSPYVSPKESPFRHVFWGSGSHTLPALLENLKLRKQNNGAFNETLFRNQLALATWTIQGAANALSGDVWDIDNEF
Experimental: (§1) For each of the various synthesized peptides, the intermolecular interaction of the peptide with the transferrin receptor (hTfR) was tested by surface plasmon resonance (SPR) according to the following method. The specific test method is as follows.
(§2) An NTA sensor chip (Global Life Sciences Technologies Japan) was inserted in a Biacore T200 (Global Life Sciences Technologies Japan) and a prime operation was performed 3 times with a running buffer: 10 mM HEPES pH 8.0 (Nacalai Tesque), 150 mM NaCl (Nacalai Tesque), 0.05% Tween 20 (Nacalai Tesque), 0.1% BSA (Sigma-Aldrich), 1.0% DMSO (FUJIFILM Wako Pure Chemical) to create an Equilibration state at a flow rate of 30 µL/min. After reacting with 350 mM EDTA solution for 60 seconds at a flow rate of 10 µL/min then reacting with 0.5 mM NiCl₂ solution (Kishida Chemical) for 60 seconds at a flow rate of 10 µL/min, the NTA sensor chip was washed with 3 mM EDTA solution (Nacalai Tesque) for 60 seconds at a flow rate of 10 µL/min. After mixing 50 µL each of 60 mM EDC solution (Global Life Sciences Technologies Japan) and 650 mM NHS solution (Global Life Sciences Technologies Japan), the mixture was reacted for 420 seconds at a flow rate of 10 µL/min. […] An obtained sensorgram was subjected to curve fitting using the least-squares method, and the binding of the peptide to hTfR was evaluated by obtaining KD values.

[2] = target: T1, human transferrin receptor (hTfR); assay: SPR in accordance with Example 2
Experimental: as §1, §2

[3] = target: T1, human transferrin receptor (hTfR); assay: SPR, hTfR immobilised
Experimental: An NTA sensor chip (Global Life Sciences Technologies Japan) was inserted in a Biacore T200 (Global Life Sciences Technologies Japan) and a prime operation was performed 3 times with a running buffer: 10 mM HEPES pH 8.0 (Nacalai Tesque), 150 mM NaCl (Nacalai Tesque), 0.05% Tween 20 (Nacalai Tesque), 0.1% BSA (Sigma-Aldrich), 1.0% DMSO (FUJIFILM Wako Pure Chemical) to create an Equilibration state at a flow rate of 30 µL/min. After reacting with 350 mM EDTA solution for 60 seconds at a flow rate of 10 µL/min then reacting with 0.5 mM NiCl₂ solution (Kishida Chemical) for 60 seconds at a flow rate of 10 µL/min, the NTA sensor chip was washed with 3 mM EDTA solution (Nacalai Tesque) for 60 seconds at a flow rate of 10 µL/min. After mixing 50 µL each of 60 mM EDC solution (Global Life Sciences Technologies Japan) and 650 mM NHS solution (Global Life Sciences Technologies Japan), the mixture was reacted for 420 seconds at a flow rate of 10 µL/min. By diluting with the running buffer, 150 µL of 3.2 µM hTfR solution was prepared and used for reaction for 600 seconds at a flow rate of 10 µL/min, thereby immobilizing hTfR on the NTA sensor chip. […] An obtained sensorgram was subjected to curve fitting using the least-squares method, and the binding of the peptide to hTfR was evaluated by obtaining KD values.

B3: Flip_894_PEG4_KFITC (peptide)
peptide: {CH2CO}-A[NMeY]F[dR][Aib]IY[Tyr(Me)]YN[NMeW]V[NMePhe(3-Cl)]VC
modifications: thioether N-15; not fully specified (C-terminus); also: PEG4c not defined
notes: also called Flip894_variant61_PEG4dk5FAM; Flip894_variant61_PEG4dk5FA
binding result [3]: no binding

B4: FLIP_000894_PEG11_K_FITC (peptide)
peptide: {CH2CO}-A[NMeY]YRRIIYYNWVFVC-{PEG11′-K(FITC)}
modifications: thioether N-15
binding result [3]: no binding

B5: hTfR_000894_PEG11_(VivoTag) (peptide)
peptide: {CH2CO}-AVFVWNYYIIRRY[NMeY]C
modifications: thioether N-15; not fully specified (C-terminus); also: linker PEG11 in text, PEG12 in table
notes: also called hTfRNo.894-vivotag750; hTfRNo.894-PEG11-Vivotag750
Kd [1]: 1.09 nM

Continued, values first:

binding result [1]: no binding
B1: hTfRNo.894FLIP-vivotag750 (peptide)
peptide: {CH2CO}-A[NMeY]YRRIIYYNWVFVC-{PEG11′-VivoTag750}
modifications: thioether N-15 (inferred); not fully specified; printed as ClAc-Ala-MeTyr-Tyr-Arg-Arg-Ile-Ile-Tyr-Tyr-Asn-Trp-Val-Phe-Val-Cys
notes: also called hTfRNo.894FLIP-PEG11-Vivotag750

Kd [2]: 0.28 nM
B2: JCR_hTfR_000894_PEG11_K(FITC) (peptide)
peptide: AVFVWNYYIIRRYYC
modifications: 14 MeTyr; C-term PEG11-K(FITC); cyclic 1-15 thioether
